Here are results for three substances from PMC5941314.

For test [1], the target named is ZNRF1^CTD (C-terminal domain of ZNRF1, residues 139–227) (UniProt Q8ND25). The experiment in a line: ITC; ZNRF1 construct (10–30 µM) in the cell, E2 in the syringe; 25°C; 20 mM sodium phosphate pH 8.0, 150 mM NaCl; single site model.
In the next test the target is Ube2T (Homo sapiens) (UniProt Q9NPD8). The settings on record: cited from earlier work.

What is called stoichiometry N is a count of units in the complex or per binding partner. One may read the Kd as the concentration at which binding is half-saturated.

ZNRF1^CTD (C-terminal domain of ZNRF1, residues 139–227), sequence (Q8ND25 139-227): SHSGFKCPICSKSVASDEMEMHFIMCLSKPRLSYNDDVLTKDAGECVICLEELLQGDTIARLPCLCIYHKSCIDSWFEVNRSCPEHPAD
Ube2D2, sequence (P62837 whole entry): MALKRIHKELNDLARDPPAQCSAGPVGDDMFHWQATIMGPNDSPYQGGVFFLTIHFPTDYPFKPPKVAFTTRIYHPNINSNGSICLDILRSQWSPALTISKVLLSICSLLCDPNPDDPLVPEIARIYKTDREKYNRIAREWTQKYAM
Ube2W, sequence (Q96B02 whole entry): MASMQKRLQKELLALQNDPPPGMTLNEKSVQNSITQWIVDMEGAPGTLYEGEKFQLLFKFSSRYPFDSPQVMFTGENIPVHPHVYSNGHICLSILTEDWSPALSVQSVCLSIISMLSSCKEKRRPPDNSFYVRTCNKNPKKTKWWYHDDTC
Ube2T (Homo sapiens), sequence (Q9NPD8 whole entry): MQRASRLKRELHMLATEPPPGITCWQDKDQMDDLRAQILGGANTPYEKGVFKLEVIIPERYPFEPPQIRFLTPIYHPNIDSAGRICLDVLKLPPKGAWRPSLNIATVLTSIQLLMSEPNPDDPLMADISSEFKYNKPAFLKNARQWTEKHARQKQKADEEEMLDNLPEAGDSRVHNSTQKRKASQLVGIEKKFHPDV
FANCL, sequence (Q9NW38 2-375): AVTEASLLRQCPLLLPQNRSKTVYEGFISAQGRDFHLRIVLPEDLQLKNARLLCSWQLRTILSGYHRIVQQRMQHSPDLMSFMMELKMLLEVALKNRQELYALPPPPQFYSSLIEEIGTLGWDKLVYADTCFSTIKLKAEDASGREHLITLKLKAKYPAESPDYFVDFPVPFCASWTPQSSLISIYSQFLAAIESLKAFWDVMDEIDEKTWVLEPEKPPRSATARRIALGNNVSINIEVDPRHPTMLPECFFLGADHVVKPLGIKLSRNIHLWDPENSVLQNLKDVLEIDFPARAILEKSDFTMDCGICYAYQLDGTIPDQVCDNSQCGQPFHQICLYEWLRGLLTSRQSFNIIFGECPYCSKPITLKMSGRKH

Regarding “Ube2D2 (from UniProt P62837 1-147) (enzyme)”, in test [1], the dH was -7.79 kcal/mol and the stoichiometry N is 0.963. For “Ube2W (from UniProt Q96B02 1-151) (enzyme)” the same measures were -8.85 kcal/mol and 0.906. Regarding FANCL (from UniProt Q9NW38), in the test with Ube2T (Homo sapiens), the Kd is 500 nM.
